32 sequences from the Immune Epitope Database (IEDB) can be followed below.

One assay has as its target HLA-A*02:01. The experiment in a line: IEDB peptide-MHC binding, purified MHC/competitive/fluorescence; filed as Kd, often an IC50 or EC50 that approximates it; ≥ and ≤ were set here for values at or beyond the usual limits of such assays. Particulars: source organism: Yersinia pestis Antiqua.
Assay [1] has as its target HLA-A*26:01. The assay is described as above.
In another assay the target is HLA-B*08:01. The experiment in a line: IEDB peptide-MHC binding, purified MHC/competitive/radioactivity; filed as Kd, often an IC50 or EC50 that approximates it; ≥ and ≤ were set here for values at or beyond the usual limits of such assays.
For another assay, the target named is HLA-A*23:01. Described as above.
The target of the next assay is HLA-A*29:02. Described as above.
The target of a further assay is HLA-A*30:02. The description is as above.
Assay [2] has as its target HLA-A*26:01. The assay is described as above.
A further assay deals with HLA-A*24:02. The assay is described as above.
For a further assay, the target named is HLA-A*01:01. The assay is described as above.
Another assay deals with HLA-B*44:02. The assay is described as above.
In another assay the target is HLA-B*44:03. The description is as above.
Another assay addresses HLA-A*30:01. The assay is described as above. Particulars: source organism: Dengue virus 2 Jamaica/1409/1983.
The mark [3] stands for this setting: source organism: Vaccinia virus WR.
The mark [4] stands for this setting: source organism: Dengue virus 3 Martinique/1243/1999.
Setting [5] is: source organism: SARS coronavirus Tor2.
[6] abbreviates: source organism: Lymphocytic choriomeningitis virus (strain Armstrong).
Where [7] appears, read: source organism: Mammarenavirus brazilense.
The mark [8] stands for this setting: source organism: Mammarenavirus juninense.
Where [9] appears, read: source organism: Dengue virus 4 Philippines/H241/1956.
Setting [10] is: source organism: Dengue virus 1 Brazil/97-11/1997.

Broadly, the Kd is the free concentration of one partner at which half of the binding sites on the other are occupied at equilibrium, for simple one-to-one binding.

In the case of LIIDEIGYL, the dissociation constant Kd was found to be 4.6 nM in the assay with HLA-A*02:01 and 4.4 nM with HLA-A*26:01 [1] (source organism: Yersinia pestis Antiqua).
SQHQHLAIM: the dissociation constant (Kd) in the assay with HLA-B*08:01 (setting [3]) is 142 nM.
In the case of LRKLTSRENL, in the assay with HLA-B*08:01 (setting [4]), the dissociation constant (Kd) is 4950 nM.
With GSVGFNIDY, the Kd with HLA-A*23:01 (setting [5]) is not below 77800 nM; with HLA-A*29:02 (setting [5]), 177 nM; with HLA-A*30:02 (setting [5]) it was 1660 nM; in the assay with HLA-A*26:01 [2] (setting [5]), 10200 nM; with HLA-A*24:02 (setting [5]), not below 77600 nM; in the assay with HLA-A*01:01 (setting [5]), 5640 nM.
For the sequence KRRLRTLIL, in the assay with HLA-B*08:01 (setting [4]), the dissociation constant Kd came to 1000 nM.
As to SDMQKFTIL, in the assay with HLA-B*08:01 (setting [3]), the Kd came to 40.9 nM.
Regarding TLDESFLGRY, the Kd in the assay with HLA-A*23:01 (setting [5]) was not below 70000 nM; in the assay with HLA-A*29:02 (setting [5]), 155 nM; in the assay with HLA-A*30:02 (setting [5]) it was 8.32 nM; in the assay with HLA-A*26:01 [2] (setting [5]), 132 nM; with HLA-A*24:02 (setting [5]), not below 70300 nM; with HLA-A*01:01 (setting [5]), 5.66 nM.
Consider EPGSSFKFL, for which the dissociation constant Kd with HLA-B*08:01 (setting [3]) was found to be 1880 nM.
Take AFKVPGVKTV: the dissociation constant (Kd) with HLA-A*23:01 (setting [6]) is not below 70000 nM; with HLA-A*29:02 (setting [6]), 6960 nM; with HLA-A*30:02 (setting [6]) it was 6590 nM; with HLA-A*26:01 [2] (setting [6]), not below 69700 nM; with HLA-A*24:02 (setting [6]), not below 70300 nM; with HLA-A*01:01 (setting [6]), not below 70400 nM.
On to ELSQSMFHY, for which the Kd in the assay with HLA-A*26:01 [1] (source organism: Bacillus cereus G9241) amounted to 250 nM.
As for VDICFWSTL, the equilibrium dissociation constant (Kd) in the assay with HLA-A*23:01 (setting [7]) is 7570 nM; in the assay with HLA-A*29:02 (setting [7]) it was not below 78900 nM; with HLA-A*30:02 (setting [7]), 9760 nM; with HLA-A*26:01 [2] (setting [7]), not below 77900 nM; with HLA-A*24:02 (setting [7]), 5630 nM; in the assay with HLA-A*01:01 (setting [7]), 12000 nM.
For the sequence LNYVIHKLF, the dissociation constant Kd with HLA-A*23:01 (setting [7]) worked out at 973 nM; in the assay with HLA-A*29:02 (setting [7]), 12800 nM; with HLA-A*24:02 (setting [7]), 10500 nM.
With EKWKKKLNQL, the dissociation constant (Kd) with HLA-B*08:01 (setting [4]) worked out at 596 nM.
As to AGSKYIHCF, the dissociation constant (Kd) was not below 21400 nM with HLA-A*23:01 (setting [8]); not below 78900 nM in the assay with HLA-A*29:02 (setting [8]); 6500 nM with HLA-A*30:02 (setting [8]); not below 77900 nM with HLA-A*26:01 [2] (setting [8]); 5370 nM with HLA-A*24:02 (setting [8]); 808 nM in the assay with HLA-A*01:01 (setting [8]).
Regarding MAGPLVAGGL, the Kd with HLA-B*08:01 (setting [4]) is 1070 nM.
With FPRYHSIEL, in the assay with HLA-B*08:01 (setting [3]), the dissociation constant (Kd) came out at 0.492 nM.
With SYLRKFSAL, the equilibrium dissociation constant (Kd) in the assay with HLA-B*08:01 (setting [3]) amounted to 5.98 nM.
As to TYQNKVVKVL, in the assay with HLA-B*08:01 (setting [9]), the Kd was found to be 155 nM.
As for AEPDDVDCW, the dissociation constant (Kd) in the assay with HLA-B*44:02 (setting [10]) was 37.4 nM; in the assay with HLA-B*44:03 (setting [10]), 236 nM.
As for VFFGYFASHF, the Kd was found to be 0.595 nM with HLA-A*23:01 (setting [5]); 0.261 nM with HLA-A*29:02 (setting [5]); 2820 nM in the assay with HLA-A*30:02 (setting [5]); 4130 nM with HLA-A*26:01 [2] (setting [5]); 4.63 nM in the assay with HLA-A*24:02 (setting [5]); 12900 nM in the assay with HLA-A*01:01 (setting [5]).
For the sequence CIAIGIITLY, the Kd with HLA-A*30:02 (setting [4]) was not below 69700 nM; with HLA-A*26:01 [2] (setting [4]), 121 nM; with HLA-A*01:01 (setting [4]), 7450 nM.
Regarding AEMEEALKG, the equilibrium dissociation constant (Kd) stood at 29.7 nM with HLA-B*44:02 (setting [4]) and 5.34 nM with HLA-B*44:03 (setting [4]).
On to KFLTNKLLL, for which the equilibrium dissociation constant (Kd) with HLA-A*23:01 (setting [5]) was 379 nM; in the assay with HLA-A*29:02 (setting [5]) it was not below 24200 nM; in the assay with HLA-A*30:02 (setting [5]), not below 27300 nM; with HLA-A*26:01 [2] (setting [5]), not below 61000 nM; with HLA-A*24:02 (setting [5]) it was 1090 nM; with HLA-A*01:01 (setting [5]), not below 78100 nM.
As to LTSRENLLL, the dissociation constant Kd with HLA-A*01:01 (setting [4]) was 418 nM.
In the case of NYTQHTSSM, the Kd was not below 81700 nM with HLA-A*23:01 (setting [5]); not below 45200 nM with HLA-A*29:02 (setting [5]); not below 81100 nM with HLA-A*30:02 (setting [5]); 16300 nM with HLA-A*26:01 [2] (setting [5]); not below 91800 nM with HLA-A*24:02 (setting [5]); not below 57000 nM with HLA-A*01:01 (setting [5]).
Turning to ITEMGRLPTF, the results for the Kd with HLA-A*30:01 and in the assay with HLA-A*01:01 (source organism: Dengue virus 2 Jamaica/1409/1983) were 9680 nM and 17500 nM, respectively.
As for TPMLRHTIE, the Kd in the assay with HLA-B*08:01 (setting [4]) came out at 3.36 nM.
In the case of KTKNNDWDY, the dissociation constant (Kd) in the assay with HLA-A*30:02 (setting [10]) is 15 nM; with HLA-A*01:01 (setting [10]), 595 nM.
As to HAQRVESWIL, in the assay with HLA-B*08:01 (setting [9]), the equilibrium dissociation constant (Kd) worked out at 355 nM.
For the sequence DGLSSVGGY, in the assay with HLA-A*26:01 [1] (source organism: Azotobacter vinelandii DJ), the dissociation constant (Kd) was not below 20000 nM.
On to VLLSKRPSL, for which, in the assay with HLA-B*08:01 (setting [3]), the Kd came out at 78 nM.
With PSVEVKLPDY, the Kd with HLA-A*30:02 (setting [9]) is 162 nM; with HLA-A*01:01 (setting [9]) it was 7510 nM.
